Measurements taken from patent US20240190958A1 (TUBULIS, published 2024).

How the values were obtained:
[1] = target: T1, human NaPi2b on NaPi2b-positive cell lines OVCAR-3 and HCC-78 (human, UniProt O95436 1-690); assay: cell-based or functional assay
T1 sequence: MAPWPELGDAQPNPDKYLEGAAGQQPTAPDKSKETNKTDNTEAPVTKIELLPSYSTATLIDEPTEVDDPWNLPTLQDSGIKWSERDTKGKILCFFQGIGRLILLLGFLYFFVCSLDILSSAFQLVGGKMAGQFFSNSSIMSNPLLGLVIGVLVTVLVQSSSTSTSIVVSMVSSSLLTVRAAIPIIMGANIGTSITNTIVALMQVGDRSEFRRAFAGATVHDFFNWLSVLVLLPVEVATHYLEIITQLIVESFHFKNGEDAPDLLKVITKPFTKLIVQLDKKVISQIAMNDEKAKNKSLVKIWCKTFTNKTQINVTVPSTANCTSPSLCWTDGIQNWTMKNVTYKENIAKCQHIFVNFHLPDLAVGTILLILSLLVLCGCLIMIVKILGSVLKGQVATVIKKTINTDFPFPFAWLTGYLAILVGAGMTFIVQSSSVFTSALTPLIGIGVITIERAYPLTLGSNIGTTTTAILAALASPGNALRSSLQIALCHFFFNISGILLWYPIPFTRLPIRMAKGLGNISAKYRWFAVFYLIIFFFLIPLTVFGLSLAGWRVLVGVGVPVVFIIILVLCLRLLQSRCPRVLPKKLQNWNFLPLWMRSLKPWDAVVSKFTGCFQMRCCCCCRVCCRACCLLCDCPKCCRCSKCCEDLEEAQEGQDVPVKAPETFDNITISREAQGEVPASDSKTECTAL

[2] = target: T2, recombinant human FcγRIIa/CD32 H131 (Lumit binding immunoassay) (human, UniProt P12318 34-217, limits assumed); assay: Lumit FcγRIIa (CD32) (H131) Binding Immunoassay (Promega), competition with Tracer-LgBiT for FcγR-SmBiT, luminescence, n=1; left panel
T2 construct: Kit reagent (Promega), used as an FcγR-SmBiT fusion; also called FcγRIIa/CD32 R131/H131 polymorphism
T2 sequence (looked up): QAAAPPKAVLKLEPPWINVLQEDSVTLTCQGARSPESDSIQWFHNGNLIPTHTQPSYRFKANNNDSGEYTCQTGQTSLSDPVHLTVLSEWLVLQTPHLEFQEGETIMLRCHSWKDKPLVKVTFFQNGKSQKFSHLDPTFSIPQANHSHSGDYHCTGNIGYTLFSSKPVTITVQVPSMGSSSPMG
Protocol: Luminescence was measured on a microplate reader Infinite M200 Pro (Tecan).
FcγR interaction studies were performed using the Lumit™ FcγR Binding Immunoassays (FcγRn, FcγRI, FcγRIIa/CD32 R131/H131 polymorphism, FcγRIIIa/CD16 V158/F158 polymorphism; Promega) based on a competition principle and luciferase detection according to the manufacturer's instructions. […] Luminescence is measured on a microplate reader Infinite M200 Pro (Tecan)._Graphs show n=1.

B1: AV25-P5(PEG24)-VC-PAB-Exatecan DAR8 ADC (antibody, human IgG1, kappa, L234A L235A)
heavy: not shown
light: DIQMTQSPSSLSASVGDRVTITCSASQDIGNFLNWYQQKPGKTVKVLIYYASSLYSGVPSRFSGSGSGTDYTLTISSLQPEDFATYYCQQYSKLPLTFGQGTKLELKRTVAAPSVFIFPPSDEQLKSGTASVVCLLNNFYPREAKVQWKVDNALQSGNSQESVTEQDSKDSTYSLSSTLTLSKADYEKHKVYACEVTHQGLSSPVTKSFNRGEC
modifications: P5(PEG24)-VC-PAB-Exatecan linker-payload on the interchain cysteine residue (light chain adduct 1; DAR8 in total); P5(PEG24)-VC-PAB-Exatecan linker-payload on interchain cysteine residues (heavy chain adducts up to 3; DAR8 in total)
notes: also called TUB-040
[1]
  cytotoxicity (resazurin assay) on HCC-78, fold lower IC50 against the anti-Napi2b comparison ADC: 15.5 fold
[2]
  binding result: no binding (tested: 250 µg/ml)

B2: AV25 mAb (LALA-silenced, AV25 HC-LALA) (antibody, human IgG1, kappa, L234A L235A)
heavy: not shown
light: DIQMTQSPSSLSASVGDRVTITCSASQDIGNFLNWYQQKPGKTVKVLIYYASSLYSGVPSRFSGSGSGTDYTLTISSLQPEDFATYYCQQYSKLPLTFGQGTKLELKRTVAAPSVFIFPPSDEQLKSGTASVVCLLNNFYPREAKVQWKVDNALQSGNSQESVTEQDSKDSTYSLSSTLTLSKADYEKHKVYACEVTHQGLSSPVTKSFNRGEC
notes: IgG1 kappa; also called unmodified AV25 mAb
[2]
  binding result: no binding (tested: 250 µg/ml)
